{"source": "paper PMC1307573", "proteins": {"B1": {"name": "Gycα-99B/β-100B (Drosophila melanogaster) (protein)", "chain 1": "MACPFFRRADSLTRQPSVIAEPGGHWALEDEELSDDALTLTHLQMAIQLLTAPSNEDLNTAVTSLVAKYRQNWPNIHKLKLDPQTFKSCANYDYLADIQELLLKMDEASASEILVLLGEELITCCCTGIIERAFRCLGTDLQEFLGSLDGVYDVLKLQEEDVTDTGFVCAGEGELIFTSERPVIAWLLLGSLKALTRMLYKVDVNIKIEPVEGDARRYRYLFSLVKDNSQTMLMGRPTSVSKTIPETVQRSNSSNASDLQMNSSSFCKMFPWHFIMNEQLELVQLGRGFSKLYKPYMADFGCQATTYFDFKRPKGLTMKFRDIVRRTYTPFLIGLNNPPGAVDFPAIGLEIKGQMVHCPESNSLLFIGSPFLDGLDGLTCNGLFISDIPLHDATREVILVGEQARAQDGLRRRMDKIKNSIEEANSAVTKERKKNVSLLHLIFPAEIAEKLWLGSSIDAKTYPDVTILFSDIVGFTSICSRATPFMVISMLEGLYKDFDEFCDFFDVYKVETIGDAYCVASGLHRASIYDAHKVAWMALKMIDACSKHITHDGEQIKMRIGLHTGTVLAGVVGRKMPRYCLFGHSVTIANKFESGSEALKINVSPTTKDWLTKHEGFEFELQPRDPSFLPKEFPNPGGTETCYFLESFRNPALDSELPLVEHINVSMKTISEGGDA", "chain 2": "MYGFVNYALELLVLKHFGEEIWEKIKKKAMVSMEGQFLVRQIYDDEITYNLIGAAVEILNIPADDILELFGKTFFEFCQDSGYDKILQVLGATPRDFLQNLDALHDHLGTLYPGMRAPSFRCTEKDGELLLHYYSERPGLEHIVIGIVKAVASKLHGVEVEIDIVKRKGEPIDEAEKERAIARENQQLLEDAVATTTTGSATVVLAPSSDAERNNNHNGSNGSNNNGMANNGNTVNVNNNNDGQQIASETDPSIALSTCPIAQDSFDCDGDKEQKCLRLLKNKSDDIERYDHVQFLIREINVAAKSQVDAKKDEVPDDMEFLCEAPLISPATFCKVFPFHLMFDRQMKIVQAGKAVSRVIPRVAEENCSLIEVVEAIRPHLQLNFENILSHINTIYVLQTRQGAMSSRHEQRFLRLKGQMMYIPETDRILFQCYPSVMNLDDLTKKGLYISDVPLHDAARDLVLLSEKFEAEYKLTKNLEMLTDKLQQTFRDLESEKQKTDRLLYSVLPKSVANELRHQRPVPPKRYDSVTLMFSGIVGFGQYCAANTDPDGAMKIVKMLNELYTVFDALTDSKRNLNVYKVETVGDKYMAVSGLPDHCEDHAKCMARVALDMMDMAKNVKMGSNPVQITIGIHSGEVVTGVIGNRVPRYCLFGNTVNLTSRTETTGVPGRINVSEETYRLLCMAINQDDSFHLEYRGPVIMKGKPTPMDCWFLTRATSSILGGTSSTGGSGGGGNGSLDSPLLQPATPTAGAATPIPVVAQRAAGHASVSRTSSAGGGGGGAVVGT"}, "B2": {"name": "Gyc-88EL (Drosophila melanogaster) (protein)", "chain": "MYGLLLENLSEYIKSVYGEEKWEDIRRQAGIDSPSFSVHQVYPENLLQKLAKKAQQVLGVSERDFMDQMGVYFVGFVGQYGYDRVLSVLGRHMRDFLNGLDNLHEYLKFSYPRMRAPSFICENETKQGLTLHYRSKRRGFVYYTMGQIREVARYFYHKEMHIELVREEILFDTVHVTFQLTFDNRAFTLASLAMTREEKHLPISAHVLFEIFPFCMVFGADMVVRSIGNSLMVILPELLGKKITAWFDLVRPLIAFKFQTILNRTNNIFELVTVDPVTERFDVQNEDLLQHEDGSEPEKSLRLKGQMVYMENWRMIMFLGTPVMPDLTSLITTGLYINDLSMHDFSRDLMLAGTQQSVELKLALDQEQQKSKKLEESMRLLDEEMRRTDELLYQMIPKQVADRLRRGENPIDTCEMFDSVSILFSDIVTFTEICSRITPMEVVSMLNAMYSIFDKLTERNSVYKVETIGDAYMVVAGAPDKDANHAERVCDMALDMVDAITDLKDPSTGQHLRIRVGVHSGAVVAGIVGLKMPRYCLFGDTVNTASRMESTSIAMKVHISESTKVLIGPNYKIIERGEIDVKGKGTMGTYWLEERENRLPLQLTAALQVHPLSPVPPTPTPKTKAIMPPVSKPLTPMMPVSVSLAASMPTSNVPAVDVMASSSSISGLALTAAAAAHMSLHHQAVVAEALTGASVEVALPSVASGATGAAAGGGAPSDDRNSRIYSPVTFKDVARRSVANSPVRSCAQPDQERRRESRSNSTGHVFMRTPSEIFGSLILDTEEFLEDLQISRSSLANNNNNQSPCGFSPTPPFRIGSAPPKPRPSNPDKFTPEELAAMDQLTPPSTAPARETASCSSASLDRDKATKLKKITFSNSSSLDATTPTALAAVVCPMRTKSPPMAVAPVMHMVQASTSKGDGQRPGSKDSVSSISLHSPPPHRSNSAPARPHSMSKAARKAFLAAKQTKAMEKLDKMIEEVQEVESQSVAKAANMRLALYGHDGGGDLAAGGCPLFLPPPPQQQQQQQQSLMPSSISDSGLCSHGHSHAPSCHHMDPKMTNSQSFQHSPRGGITHQCCSGFGHGNGRHSHRMHSNACRIL"}, "B3": {"name": "Gyc-88EL/89Da (Drosophila melanogaster) (protein)", "chain 1": "B2 chain", "chain 2": "not shown"}, "B4": {"name": "Gyc-88EL/89Db (Drosophila melanogaster) (protein)", "chain 1": "B2 chain", "chain 2": "not shown"}}, "type_in_all_cases": "biochemical, Drosophila melanogaster", "key": {"[1]": {"substrate": "Nc1nc2c(ncn2[C@@H]2O[C@H](COP(=O)(O)OP(=O)(O)OP(=O)(O)O)[C@@H](O)[C@H]2O)c(=O)[nH]1"}, "[2]": {"substrate": "Nc1nc2c(ncn2[C@@H]2O[C@H](COP(=O)(O)OP(=O)(O)OP(=O)(O)O)[C@@H](O)[C@H]2O)c(=O)[nH]1", "remark": "listed apart in the source"}, "[3]": {"substrate": "Nc1nc2c(ncn2[C@@H]2O[C@H](COP(=O)(O)OP(=O)(O)OP(=O)(O)O)[C@@H](O)[C@H]2O)c(=O)[nH]1", "remark": "listed apart in the source"}, "[4]": {"substrate": "Nc1nc2c(ncn2[C@@H]2O[C@H](COP(=O)(O)OP(=O)(O)OP(=O)(O)O)[C@@H](O)[C@H]2O)c(=O)[nH]1", "remark": "listed apart in the source"}}, "note": "Where two headings read alike, the source gives them in different places.", "data": [{"protein": "B1", "values": [{"measurement": "Km", "setting": "[1]; other: in the presence of Mg2+", "value": "370 ± 60", "unit": "µM"}, {"measurement": "Vmax", "setting": "[1]; other: in the presence of Mg2+", "value": "2.11 ± 0.10 pmoles cGMP/min/mg protein"}, {"measurement": "Km", "setting": "[1]; other: in the presence of Mn2+", "value": "31 ± 8", "unit": "µM"}, {"measurement": "Vmax", "setting": "[1]; other: in the presence of Mn2+", "value": "204 ± 10.6 pmoles cGMP/min/mg protein"}]}, {"protein": "B2", "values": [{"measurement": "Km", "setting": "[2]; other: in the presence of Mg2+", "value": "1730 ± 1300", "unit": "µM"}, {"measurement": "Vmax", "setting": "[2]; other: in the presence of Mg2+", "value": "1.32 ± 0.33 pmoles cGMP/min/mg protein"}, {"measurement": "Km", "setting": "[2]; other: in the presence of Mn2+", "value": "32 ± 11", "unit": "µM"}, {"measurement": "Vmax", "setting": "[2]; other: in the presence of Mn2+", "value": "2.26 ± 0.16 pmoles cGMP/min/mg protein"}]}, {"protein": "B3", "values": [{"measurement": "Km", "setting": "[3]; other: in the presence of Mg2+", "value": "2060 ± 1950", "unit": "µM"}, {"measurement": "Vmax", "setting": "[3]; other: in the presence of Mg2+", "value": "1.92 ± 0.65 pmoles cGMP/min/mg protein"}, {"measurement": "Km", "setting": "[3]; other: in the presence of Mn2+", "value": "149 ± 14", "unit": "µM"}, {"measurement": "Vmax", "setting": "[3]; other: in the presence of Mn2+", "value": "90.1 ± 2.34 pmoles cGMP/min/mg protein"}]}, {"protein": "B4", "values": [{"measurement": "Km", "setting": "[4]; other: in the presence of Mg2+", "value": "890 ± 170", "unit": "µM"}, {"measurement": "Vmax", "setting": "[4]; other: in the presence of Mg2+", "value": "4.83 ± 0.33 pmoles cGMP/min/mg protein"}, {"measurement": "Km", "setting": "[4]; other: in the presence of Mn2+", "value": "9.4 ± 4.8", "unit": "µM"}, {"measurement": "Vmax", "setting": "[4]; other: in the presence of Mn2+", "value": "8.72 ± 0.82 pmoles cGMP/min/mg protein"}]}]}
